# B1: LINE1-full (parent)
# chain: UACGUAGGUGGUUUUCCCCUGAUAGUGCUAAGGGGGCCUGGAAGUUUGGACUGGGCAGAGCUCAACACAGCGUGGCAAAGUGGCUGUGGCUAGACUGCCUCUCUGGAUUCCUCGUCACUCAGCAGGGCAUCUCUGAGAGAAAUGCC
# Variants of: B1
# Experiment: self-cleavage, relative activity (ratio to wild type); higher = more cleavage; in vitro, sequencing; the parent is a self-cleaving ribozyme
row,Variant,self-cleavage
1,G40A A117G,1.03
2,G36C U87C,0.25
3,G40A U81C,1.04
4,G40A G106A,1.23
5,G36U U143C,1.16
6,C37A U100A,0.93
7,C37A U100C,1.56
8,U39C A79U,1.2
9,U39A G72A,1.81
10,G36C U81C,0.9
11,C38A U115C,1.14
12,C37A C90U,0.04
13,C37U A121G,1.62
14,C37G A142G,1.25
15,G36C G55A,0.13
16,U39C U104C,1.77
17,U39G C123U,0
18,G40A A140G,1.12
19,C37G U119C,1.46
20,G40A A57U,0.05
21,U39A C120U,1.56
22,U39A U143C,1.42
23,C37U U96A,0.04
24,U39C G40A,0.73

row,Variant,self-cleavage
1,U39C G40C,1.48
2,U39A U108C,1.24
3,G40A A59G,0.06
4,C37U A67U,0.08
5,C37A A92C,0.2
6,G40A A78U,1.96
7,C37U U109A,1.24
8,U39C U102A,1.03
9,C38U G41U,1.21
10,G36C,1.07
11,G36U,1.35
12,U39C G139A,0.58
13,U39C G139U,0.42
14,C37U A136U,1.49
15,U39A G53U,1.63
16,G40C U45C,0.75
17,G36U A94G,0.12
18,C37U U45C,1.02
19,G36U U62A,0.03
20,U39G A65G,0.15
21,C37U U91C,0.27
22,G36C U104C,1.87
23,U39A G60A,0.05
24,U39C U45A,0.87

row,Variant,self-cleavage
1,U39C U45G,1.17
2,U39C A117U,1.49
3,U39C A117G,1.37
4,C37U A43G,1.32
5,G40A C131U,0.76
6,U39A U112C,1.38
7,U39C A78U,1.42
8,U39C A141G,1.11
9,G40A A43G,1
10,U39C C99U,0.5
11,C38U U134C,1.14
12,C37G U62C,0.12
13,U39C G55A,0.08
14,U39C A42U,0.73
15,C38A U130C,1.41
16,C37G U96G,0.07
17,G40A U85A,0.02
18,G40A U85C,0.04
19,C38A A121U,1.42
20,C37U C56U,0.11
21,U39A G105U,1.23
22,U39G U109C,1.87
23,U39G A92U,1.06
24,U39G A92G,0

row,Variant,self-cleavage
1,G36C G74U,1.21
2,G40A U104A,0.75
3,G40A A94U,0.26
4,U39C A57U,0.06
5,C38A U143G,1.43
6,U39C A121U,1.04
7,U39C A121G,1.67
8,U39C A121C,1.37
9,C38U C95U,0.21
10,C38G U52A,1.04
11,G40A A129C,1.63
12,U39C A69G,0.39
13,G40A G53A,0.74
14,U39A A129U,1.65
15,U39A A129G,1.27
16,U39A A92G,0.1
17,U39A A92U,0.57
18,C37G U87C,0.2
19,U39G U52C,0
20,G40A U87C,0.06
21,C37G A138G,0.8
22,G40C A140G,1.23
23,C37G U112C,0.28
24,U39C G75A,0.83

row,Variant,self-cleavage
1,U39A A107G,1.42
2,U39A A107U,1.43
3,U39A A77G,2.32
4,G40A C145U,0.64
5,G40A U46A,1.23
6,G40A U46C,1.4
7,U39G A67G,1.2
8,C37A A142G,1.24
9,C37A U130C,1.39
10,U39A A117G,1.39
11,G40U A78G,0.81
12,G36C A140G,1.12
13,C37U U130A,0.99
14,U39C C145U,0.99
15,C37U A107G,1.07
16,U39A G106A,1.35
17,U39G U45G,1.05
18,G40A A136G,0.85
19,C38A A69G,0.61
20,U39A A140U,1.23
21,G36U U52A,0.64
22,U39A A138G,1.27
23,U39A A138U,1.75
24,U39C C131U,1

row,Variant,self-cleavage
1,C37A C95A,0.01
2,C37G A65G,0
3,U39A A65G,0.05
4,U39A A65U,0.15
5,C38U A117G,2.38
6,C37A U143C,0.75
7,C38A U109C,1
8,U39A U132C,1.38
9,U39A U91C,0.43
10,C37G A79G,0.85
11,C38U C110A,1.64
12,U39C U109C,1.49
13,U39C U109G,0.74
14,G40C A42G,1.09
15,C37U A140G,0.26
16,C37U A140U,1.14
17,U39A A43U,1.39
18,U39G U143C,1.81
19,U39A A94G,0.36
20,C37U A79C,1.22
21,G36U A107G,0.9
22,C37G A67U,0.12
23,C38G U73A,1.76
24,C37G A59G,0.07

row,Variant,self-cleavage
1,C37G A59U,0.84
2,U39C C123U,0.9
3,G40A A79U,1.13
4,U39A U96G,0.14
5,U39A U96C,0.19
6,U39A U96A,0.04
7,G40C C146U,1.54
8,U39C C63U,0.25
9,U39C C63A,0.05
10,U39C A77U,0.96
11,G40A U96A,0.03
12,C38U U46A,1.28
13,U39C G86A,0.09
14,G40A A69G,0.49
15,C37A A64U,0.35
16,C37G U52C,0.75
17,U39C U143C,1.33
18,U39C U143A,1.01
19,U39A G74A,0.88
20,C38U U39A,1.09
21,U39C U96C,0.05
22,U39C U96A,0.08
23,C37A U108C,1.51
24,C37G A94G,0.32

row,Variant,self-cleavage
1,U39G A138G,1.01
2,U39G U130C,1.25
3,U39C G127U,0.87
4,G36C A117G,1.51
5,G40A U130A,1.36
6,G40A U130G,1.19
7,C38U U96A,0.04
8,C38U U96C,0.17
9,U39A A59G,0.08
10,U39A A59U,1.19
11,U39C U47A,1.15
12,U39A U87C,0.22
13,C38A A140G,1.28
14,C37U U115C,1.67
15,U39G C103A,1.85
16,G36U U45C,1.13
17,U39C G83U,0.52
18,U39C C116U,1.05
19,C38A A136G,0.7
20,C37U A142G,1.52
21,U39A U104C,1.57
22,C38U U115C,1.6
23,C38U U115A,1.46
24,U39C C113U,1.26

row,Variant,self-cleavage
1,C38U A138G,0.83
2,G36U U108C,1.62
3,U39A C63U,0.43
4,G40A G139A,0.58
5,C37G U143C,1.38
6,G36C U102C,1.08
7,G36C U52A,0.45
8,G40A U91C,0.21
9,C37U C113U,0.42
10,C38U U47C,0.93
11,C37A U96C,0.08
12,U39A G89A,0.06
13,U39C G72A,1.07
14,U39C A64U,0.35
15,U39A U81A,2.08
16,U39A U100C,1.67
17,G36U U73A,0.46
18,G36C U47A,0.89
19,G36C A64C,0.35
20,U39C G105U,0.85
21,C38A U52C,0.99
22,U39A G114U,1.15
23,U39A G114A,1.19
24,U39C G53U,1.26

row,Variant,self-cleavage
1,C37G G60A,0.06
2,U39C A94G,0.11
3,G40A U112C,0.89
4,U39C A124U,1.26
5,G40A A124G,0.52
6,U39A U130A,1.38
7,U39A U46C,1.5
8,U39A U47A,0.93
9,C37G U47A,1.11
10,C37G U47C,0.71
11,U39C U112C,1.24
12,U39A U115A,1.42
13,U39A U115C,1.31
14,U39C A50G,0.77
15,G36C U143A,0.7
16,C37U U85C,0.19
17,C38U U130C,1.46
18,C37U U52G,0.88
19,C37U U52C,1.13
20,G40A A77G,1.02
21,U39C U91A,0.39
22,U39C G122C,0.96
23,U39C U46G,1.75
24,C38U A43G,0.81

row,Variant,self-cleavage
1,U39C A92G,0.09
2,U39C A92U,0.58
3,U39A A124G,0.97
4,U39G A129U,1.44
5,G40A G74U,1.45
6,C37A U47A,1.12
7,U39C C90U,0.07
8,U39C C90G,0.03
9,C38A U104C,0.82
10,C37G U102C,1.19
11,C37G U102A,0.9
12,C38U U45C,1.39
13,U39C C71A,0.09
14,C37U,1.23
15,C37G,1.13
16,C37A,1.04
17,G40A U119C,0.84
18,U39G U85A,0
19,U39G U85C,0.14
20,U39C A142G,1.18
21,G40A G82A,1.73
22,C37U U112A,1.07
23,G36U U119A,1.4
24,G36U U134C,1.99

row,Variant,self-cleavage
1,U39A A57G,0.87
2,U39A A57U,0.12
3,C37U A138G,1.2
4,G40U A50G,0
5,U39A U52C,1.72
6,U39C A107G,1.36
7,C37A A129G,1.22
8,U39C U62C,0.09
9,U39C A59G,0.04
10,U39C A59U,0.61
11,G40A U115A,1.17
12,G40A U115C,1.18
13,U39A G122A,0.54
14,C37G U130G,0.68
15,C38U U62A,0.02
16,C38U U62C,0
17,C38U G60A,0.05
18,C38A A141U,1.49
19,U39C A140U,1.22
20,U39C A140G,1.3
21,U39A A78U,1.98
22,U39A A78G,1.38
23,U39C A65G,0.09
24,U39C U73G,1.08

row,Variant,self-cleavage
1,U39C U73A,1
2,U39C U73C,2.09
3,C37U C146U,1.27
4,G36A U108A,1.23
5,G36A U108C,1.37
6,U39G G74A,0.97
7,U39C U108C,1.92
8,C38U A136U,1.08
9,U39G A64G,0.09
10,C37U U39C,1.26
11,C37U U39A,1.12
12,G40A A42G,1.07
13,G40A A64U,0.38
14,G40A A64C,0.18
15,U39C G114A,1.04
16,C38G A138U,1.31
17,U39A A67U,0.07
18,U39A A67G,0.43
19,U39C U87C,0.17
20,C38A U132C,1.02
21,U39A U102A,1.62
22,C37A A94U,0.23
23,C37A A94C,0.06
24,U39G U47C,0.52

row,Variant,self-cleavage
1,U39A C103U,1.74
2,U39A U134C,1.3
3,U39C A129G,1.61
4,U39C A129U,1.05
5,U39G U112A,1.65
6,U39C,1.14
7,U39A,1.34
8,U39G,1.46
9,U39C U132C,1.32
10,U39C U132A,1.46
11,C37U G88A,0.04
12,U39A A142C,1.59
13,C37U U143A,1.14
14,U39A A69G,0.55
15,U39A A69U,0.04
16,C38U A69G,0.49
17,U39C U85G,0.04
18,U39G U132C,2.44
19,U39G G135A,1.86
20,U39C G126A,1.18
21,G36C A107G,2.05
22,C37G U45A,0.85
